From patent US20260258465, “NUCLEIC ACID-GUIDED DNA SYNTHESIS” (The Trustees of Columbia University in the City of New York, published 2026) come the findings set out here.

For the series, the target named is T1, KpnDRT2 reverse transcriptase (Klebsiella pneumoniae).
T1 chain: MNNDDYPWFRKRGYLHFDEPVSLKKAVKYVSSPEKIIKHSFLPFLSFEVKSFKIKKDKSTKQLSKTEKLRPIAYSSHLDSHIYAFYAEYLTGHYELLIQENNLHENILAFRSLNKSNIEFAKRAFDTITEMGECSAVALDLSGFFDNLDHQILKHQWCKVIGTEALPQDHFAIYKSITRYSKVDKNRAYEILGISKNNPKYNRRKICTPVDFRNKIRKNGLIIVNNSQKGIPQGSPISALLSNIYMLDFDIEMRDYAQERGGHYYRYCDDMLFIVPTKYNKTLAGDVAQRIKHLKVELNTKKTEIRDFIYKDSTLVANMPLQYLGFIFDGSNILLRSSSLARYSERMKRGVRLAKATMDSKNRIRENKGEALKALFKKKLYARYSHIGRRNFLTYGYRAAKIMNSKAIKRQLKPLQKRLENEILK
Put plainly: EMSA; 20 mM HEPES pH 7.5, 5 mM MgCl2, 200 mM NaCl, 37 C. The conditions noted are these: tags: N-terminal His6-GST removed by TEV; C-terminal StrepII; stem-loops SL1-SL8. Here is the method:
To test binding of the ncRNA by the RT, the purified ncRNA was mixed with increasing amounts of the RT in reaction buffer (20 mM HEPES pH 7.5, 5 mM MgCl₂, 5% glycerol, 200 mM NaCl, and 1 mM DTT). Samples were incubated at 37° C. for 15 minutes and analyzed by electrophoretic mobility shift assay (EMSA). The shift in mobility at higher concentrations of RT enzyme indicates binding of the ncRNA by the RT (FIG. 14A).
In general terms: In EMSA bound probe runs differently from free probe, usually more slowly.

B1: KpnDRT2 ncRNA WT (ssRNA)
RNA: GCCCUAAACAAAGGUUUAGGGGUAUUGUACAGGUUGUCAAGCCUCCCACAGGUCUUGGUGAAACCAAUCACUGUGACGACGGUAAGCAACACUUGGAUGAUAUUCAUAAUUGACUCCACGCUACUGAUUACAUUAUACAGCAUAUCUAACAUUUGCGGCGAGGUUCACAAUUUGUAUUUAGGUACUGAUUGUGGAUGAGAAGGUUGGAGAAAGACCACUUGGUUAAGCCGGAGGAUGUGUCCUAGAAUUGUCGCUAUUCUGUCAUCCUCCGGUUUUGCUAA
With B1, the binding result is listed as “binds”.
